Assay results reported in patent publication US6936431 (dated 2005).
“And” between values parts separate entries of the source, which are not always exact repeats. Equal entries are not always repeated. Where two headings read alike, the source gives them in different places.

Assays:
[1] = biological target: T1, rat brain farnesyl:protein transferase (rat, UniProt Q04631 2-377; Q02293 1-437); test: farnesyltransferase activity inhibition; FIG. 11
[2] = biological target: T1, rat brain farnesyl:protein transferase; test: farnesyltransferase activity inhibition; FIG. 10A
[3] = biological target: T1, rat brain farnesyl:protein transferase; test: farnesyltransferase activity inhibition; FIG. 10B
[4] = biological target: T1, rat brain farnesyl:protein transferase; test: farnesyltransferase activity inhibition; FIG. 10C
[5] = biological target: T1, rat brain farnesyl:protein transferase
[6] = biological target: T1, rat brain farnesyl:protein transferase; test: farnesyltransferase activity inhibition; FIG. 12A
[7] = biological target: T1, rat brain farnesyl:protein transferase; test: farnesyltransferase activity inhibition; FIG. 12B

B1: CFIM (peptide)
peptide: CFIM
[1]
  Ki: 500 nM

B2: CVIA (COOH-terminal tetrapeptide of a-Mating factor) (peptide)
peptide: CVIA
[2]
  Ki: 4 µM

B3: CVIM with lysine at the X position (CVIK) (peptide)
peptide: CVIK
[3]
  Ki: > 30 µM

B4: CVIL (COOH-terminal tetrapeptide of rap2b) (peptide)
peptide: CVIL
[4]
  Ki: 10500 nM

B5: CVIM (COOH-terminal tetrapeptide of p21^K-rasB) (peptide)
peptide: CVIM
[5]
  Ki: 350 nM and 200 nM

B6: CVAM (peptide)
peptide: CVAM
[2]
  Ki: 6 µM

B7: CVLM (peptide)
peptide: CVLM
[4]
  Ki: 200 nM

B8: CVFM (peptide)
peptide: CVFM
[6]
  Ki: 10 nM
[7]
  Ki: 35 nM

B9: CLIM (peptide)
peptide: CLIM
[4]
  Ki: 80 nM

B10: CVIM with lysine at the A2 position (CVKM) (peptide)
peptide: CVKM
[3]
  Ki: > 30 µM
